Source: publication PMC10204415 (2023)

Legend:
[1] = target: T1, MBP-ARHGEF11 (mouse ARHGEF11 residues 1334–1406, except for deleted residues 1352–1394 by alternative … (mouse, UniProt Q68FM7 1334-1406, deleted residues 1352–1394 by alternative splicing)); assay: replicate 1; without BSA blocking
[2] = target: T1, MBP-ARHGEF11 (mouse ARHGEF11 residues …); assay: replicate 2; without BSA blocking
[3] = target: T1, MBP-ARHGEF11 (mouse ARHGEF11 residues …); assay: replicate 3; without BSA blocking
[4] = target: T1, MBP-ARHGEF11 (mouse ARHGEF11 residues …); assay: replicate 1; GSA-immobilized MBP-ARHGEF11, CDNB assay
[5] = target: T1, MBP-ARHGEF11 (mouse ARHGEF11 residues …); assay: replicate 2; GSA-immobilized MBP-ARHGEF11, CDNB assay
[6] = target: T1, MBP-ARHGEF11 (mouse ARHGEF11 residues …); assay: replicate 3; GSA-immobilized MBP-ARHGEF11, CDNB assay

T1 sequence (Q68FM7 entry or part of it deleted residues 1352–1394 by alternative splicing): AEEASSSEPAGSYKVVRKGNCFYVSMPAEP

B1: GST-ZO1-ZU5 (mouse ZO-1 ZU5 domain, residues 1624–1745) (domain or fragment)
chain: EDGHTVVATARGIFNSNGGVLSSIETGVSIIIPQGAIPEGIEQEIYFKVCRDNSILPPLDKEKGETLLSPLVMCGPHGLKFLKPVELRLPHCDPKTWQNKCLPGDPNYLVGANCVSVLIDHF
[1]
  Kd: 8.7 µM
[2]
  Kd: 10.9 µM
[3]
  Kd: 14.7 µM
[4]
  Kd: 37.3 µM
[5]
  Kd: 28 µM
[6]
  Kd: 56 µM
